Substrate in this data set: C[C@@H]1O[C@H](OP(=O)(O)OP(=O)(O)OC[C@H]2O[C@@H](n3cnc4c(=O)[nH]c(N)nc43)[C@H](O)[C@@H]2O)[C@@H](O)[C@H](O)[C@@H]1O
Put plainly: GDP-Glo glycosyltransferase assay, nonlinear regression. The data set is classed as biochemical, Homo sapiens. The note with it: saturating biantennary N-glycan acceptor 7; 1 h. The source says: GDP-Glo glycosyltransferase assay, nonlinear regression on FUT8

B1: FUT8 (Homo sapiens) (protein)
chain: MRPWTGSWRWIMLILFAWGTLLFYIGGHLVRDNDHPDHSSRELSKILAKLERLKQQNEDLRRMAESLRIPEGPIDQGPAIGRVRVLEEQLVKAKEQIENYKKQTRNGLGKDHEILRRRIENGAKELWFFLQSELKKLKNLEGNELQRHADEFLLDLGHHERSIMTDLYYLSQTDGAGDWREKEAKDLTELVQRRITYLQNPKDCSKAKKLVCNINKGCGYGCQLHHVVYCFMIAYGTQRTLILESQNWRYATGGWETVFRPVSETCTDRSGISTGHWSGEVKDKNVQVVELPIVDSLHPRPPYLPLAVPEDLADRLVRVHGDPAVWWVSQFVKYLIRPQPWLEKEIEEATKKLGFKHPVIGVHVRRTDKVGTEAAFHPIEEYMVHVEEHFQLLARRMQVDKKRVYLATDDPSLLKEAKTKYPNYEFISDNSISWSAGLHNRYTENSLRGVILDIHFLSQADFLVCTFSSQVCRVAYEIMQTLHPDASANFHSLDDIYYFGGQNAHNQIAIYAHQPRTADEIPMEPGDIIGVAGNHWDGYSKGVNRKLGRTGLYPSYKVREKIETVKYPTYPEAEK
notes: isolated enzyme; construct not described in main text
With B1, the Km is 33.8 ± 2.5 µM.
